Measured values: publication PMC1933424

Experiments:
[1] = Western blot of yeast culture supernatant, 30°C; settings: glycan lost; control: wild-type full-length GA
[2] = extracellular GA activity of yeast cultures, 30°C; settings: glycan lost; control: wild-type full-length GA

B1: Rhizopus oryzae glucoamylase (RoGA): Asn167 to Gln (protein)
parent chain: MQLFNLPLKVSFFLVLSYFSLLVSAASIPSSASVQLDSYNYDGSTFSGKIYVKNIAYSKKVTVIYADGSDNWNNNGNTIAASYSAPISGSNYEYWTFSASINGIKEFYIKYEVSGKTYYDNNNSANYQVSTSKPTTTTATATTTTAPSTSTTTPPSRSEPATFPTGNSTISSWIKKQEGISRFAMLRNINPPGSATGFIAASLSTAGPDYYYAWTRDAALTSNVIVYEYNTTLSGNKTILNVLKDYVTFSVKTQSTSTVCNCLGEPKFNPDASGYTGAWGRPQNDGPAERATTFILFADSYLTQTKDASYVTGTLKPAIFKDLDYVVNVWSNGCFDLWEEVNGVHFYTLMVMRKGLLLGADFAKRNGDSTRASTYSSTASTIANKISSFWVSSNNWIQVSQSVTGGVSKKGLDVSTLLAANLGSVDDGFFTPGSEKILATAVAVEDSFASLYPINKNLPSYLGNSIGRYPEDTYNGNGNSQGNSWFLAVTGYAELYYRAIKEWIGNGGVTVSSISLPFFKKFDSSATSGKKYTVGTSDFNNLAQNIALAADRFLSTVQLHAHNNGSLAEEFDRTTGLSTGARDLTWSHASLITASYAKAGAPAA
[1]
  expression_or_secretion: decreases

B2: Rhizopus oryzae glucoamylase (RoGA): T165A (protein)
parent chain: B1 parent chain
[2]
  enzymatic_activity: no change
[1]
  expression_or_secretion: no change
